How the values were obtained:
IgE+ mMCP-1+ mast cells = experiment: Localization of gavaged HRF inhibitors in jejunum by confocal microscopy; assay type: in vivo, mouse; conditions: using anti-His tag, data not shown
Method: HRF multimers in the jejunum of non-sensitized/OVA challenged (Cont, n=6) or OVA-sensitized/OVA-challenged (OVA, n=5) mice were quantified by a newly developed ELISA (FIG. 3A, FIG. 3C). HRF was also measured by ELISA (FIG. 3B). HRF dimer and monomer were quantified by western blotting in control (Cont) and food allergic mice treated without (OVA) or with GST (GST) or GST-N19 (N19) (n=5 for each group) (FIG. 3D). Allergic diarrhea was induced by 6 challenges. On the day of 7th challenge, the mice were gavaged with 0.1 mg of GST or GST-N19 (FIG. 3E). One hour later, mice were sacrificed without OVA challenge. Jejunum tissues were stained for GST, IgE, and mMCP-1 before confocal microscopy (n=5 for GST and n=6 for GST-N19). Arrows indicate cells positive for GST or GST-N19 as well as IgE and mMCP-1. […] Bars=50 μm.
Jejunum biopsy was fixed in 4% paraformaldehyde at 4° C., washed in 10-20% sucrose in phosphate buffered saline, and embedded in O.C.T. compound (Sakura Finetek, Japan). Cyrosections were made in 6 μm and blocked with 2% skim milk. Immunostaining was performed with anti-HRF (rabbit polyclonal FL-172), anti-GST (rabbit polyclonal Z-5) (Santa Cruz Biotechnology), anti-IgE (clone RME-1 from Biolegend and clone R35-72 from BD Biosciences), anti-mMCP1 (Catalog #AF5146, R&D Systems), anti-CD45 (clone 30-F11), anti-CD63 (clone NVG-2) (Biolegend), and anti-Siglec F (clone E50-2440, BD Biosciences) as primary antibodies, and anti-Rabbit Alexa Fluor 647 (Catalog #A21245), anti-Rat Alexa Fluor 568 (Catalog #A11077), and anti-Sheep Alexa Fluor 555 (Catalog #A11015) (Thermo Fisher Scientific) as secondary antibodies. Coverslips were mounted with Prolong Gold with DAPI (Thermo Fisher Scientific) and fluorescence was observed under Leica TCS SP2 confocal microscopy (Leica) and Nuance Multi spectral Imaging System (PerkinElmer).
Applicant next tested whether HRF inhibitors target mucosal mast cells. To this end, mice with allergic diarrhea were i.g. gavaged with GST-N19 or GST, and their location was identified 1 h after their gavage.

[1] = system: OVA-induced food allergy (allergic diarrhea); experiment: Therapeutic i.v. treatment with HRF inhibitor after allergic diarrhea is established; assay type: in vivo, mouse; conditions: i.v. 30 μg twice
Method: FIGS. 5A-5F show therapeutic treatment with HRF inhibitor ameliorates the severity of food allergy. Mice were sensitized and i.g. challenged with OVA. By the seventh OVA challenge, all the mice suffered diarrhea. These mice were pretreated i.v. with 30 μg of HRF-2CA (2CA) or PBS (OVA) before challenged with OVA two more times. (FIG. 5A) Procedure scheme. (FIG. 5B) Diarrhea severity (n=11 for OVA, n=13 for HRF-2CA and n=4 for non-sensitized control (not shown); pooled data of two independent experiments). ***: p<0.001 by two-way ANOVA. (FIG. 5C) Total and OVA-specific IgE and IgG1 concentration in sera were measured by ELISA. (FIG. 5D) mMCP-1 in sera was measured by ELISA. (FIG. 5E) Sections of jejunum were stained with chloroacetate esterase. (FIG. 5C—FIG. 5E) *, **, ***: p<0.05, p<0.01, p<0.001 by Student's t-test. (FIG. 5F) Similar i.v. therapeutic treatment of allergic mice was conducted with 30 μg of synthetic N19 peptide (n=12 for OVA and n=12 for pepN19; pooled data of two independent experiments). […] by two-way ANOVA.
Mice were i.p. sensitized with OVA (50 μg/mouse) plus alum on days 0 and 14. From day 28, mice were i.g. challenged with OVA (25 or 50 mg) or PBS (control) three times a week. Before each challenge, mice were starved for 3 h, then i.g. pretreated with GST, GST-N19 (100 μg/mouse), synthetic N19 peptide, or HRF-2CA. The development of diarrhea was monitored for 90 min after OVA challenge. Diarrhea severity (30) was based on states of stool: solid (score 0), funicular (score 1), slurry (score 2), and watery (score 3).
Applicant next tested whether HRF inhibitors modulate food allergy after diarrhea has begun. […] One cohort of mice was intravenously (i.v.) treated twice with PBS followed by OVA challenge, and the other were i.v. treated twice with 30 μg of HRF-2CA followed by OVA challenge (FIG. 5A).

[2] = biological target: IgE on mucosal (IgE+ mMCP-1+, c-Kit+) mast cells of the small intestine of OVA-sensitized/OVA-challenged mice (mouse); experiment: confocal microscopy of jejunum, anti-His tag staining (data not shown)
[3] = system: OVA-induced allergic diarrhea; experiment: Food allergy experiments in WT and FceRIa-/-, FcgRIIB-/-, Enpp3-/- mice; assay type: in vivo, mouse; conditions: WT and mutant mice, via FcεRI
From the text: FIGS. 10A-10C show HRF-2CA suppresses allergic diarrhea via FcεRI. WT and mutant mice were subjected to food allergy experiments as described in the FIG. 1 legend. FceRIa^−/− (n=4-5 each for group with sensitization and n=3 each for unsensitized group (Cont; no diarrhea was observed))(FIG. 10A), FcgRIIB^−/− (n=9-10 each for groups with sensitization and n=4-5 each for unsensitized groups (Cont; no diarrhea was observed); pooled data of two independent experiments) (FIG. 10B), and Enpp3^−/− (n=9-10 each for groups with sensitization and n=7 each for unsensitized groups (Cont; no diarrhea was observed); pooled data of two independent experiments) (FIG. 10C) mice along with WT mice were used. *, ***: p<0.05, p<0.001 by Student's t-test.
BALB/c mice were bred in the animal facility of RIKEN IMS. Frozen zygotes of FceRIa^−/− mice were donated by Takashi Saito (RIKEN IMS) and bred at RIKEN IMS. FcgRIIB^−/− mice provided by Toshiyuki Takai (Tohoku University) were also bred at RIKEN IMS. Food allergy experiments with Enpp3^−/− mice were conducted at Osaka University. All genetically modified mice were backcrossed to BALB/c background for more than ten generations.
Mice were i.p. sensitized with OVA (50 μg/mouse) plus alum on days 0 and 14. […] The development of diarrhea was monitored for 90 min after OVA challenge. […]

B1: HRF-2CA-His6, a monomeric mutant of mouse HRF (protein)
chain: MIIYRDLISHDELFSDIYKIREIADGLALEVEGKMVSRTEGAIDDSLIGGNASAEGPEGEGTESTVVTGVDIVMNHHLQETSFTKEAYKKYIKDYMKSLKGKLEEQKPERVKPFMTGAAEQIKHILANFNNYQFFIGENMNPDGMVALLDYREDGVTPFMIFFKDGLEMEKAHHHHHH
IgE+ mMCP-1+ mast cells targeted by the His-tagged substance (IgE+ mMCP-1+ mast cells): 64.0±2.69% | clinical scores (diarrhea severity, severity of food allergy) ([1]; after diarrhea by the 7th OVA challenge): significantly reduced | mucosal mast cells ([1]; therapeutic): did not reduce | serum mMCP-1 levels ([1]; therapeutic): modestly but significantly reduced | total IgE, IgG1 ([1]; therapeutic): did not reduce | percent of IgE+ mMCP-1+ mast cells targeted [2]: 64% | allergic diarrhea [3]: suppresses

Source: US20220241369A1, “COMPOSITIONS AND METHODS OF MODULATING INFLAMMATION” (La Jolla Institute for Allergy and Immunology, priority 2018, published 2022)
